US20260167728A1 (published 2026)

How the values were obtained:
human EGFR [1] = target: T1, human EGFR (human, UniProt P00533 25-645, limits assumed); test: BLI, room temperature
T1 construct: on HT-29 cells in the cytotoxicity assay; also called epidermal growth factor receptor
Procedure: Each construct was expressed in small-scale and purified. Thermal stability was determined by Differential Scanning Fluorimetry. Melting temperature (Tₘ) determined by Differential Scanning Fluorimetry experiments described herein were performed either in duplicate or triplicate using GloMelt™ dye and QuantStudio5™. GloMelt™ dye undergoes fluorescence enhancement upon binding to hydrophobic regions of denatured proteins. Therefore, the dye can be used to detect protein unfolding or measure thermal stability. GloMelt™ dye is optimized for detection in the SYBR® Green channel of qPCR instruments. The Differential Scanning Fluorimetry experiments were performed in 96-well plates with 10 μg protein/reaction (equal to 0.5 mg/mL final protein concentration), reaction buffer, and GloMelt™ 10× dye according to manufacturer's instructions. Fluorescence of 96-well plates was read and melt curve plots were generated in the QuantStudio5™ qPCR system. Binding affinity was analyzed with bio-layer interferometry at room temperature with human EGFR as the antigen.

huCD3e-mFc [2] = target: T2, huCD3e-mFc (human, UniProt P07766 23-126); test: Pool 3 screen
T2 construct: not shown: mFc, not described
T2 sequence (P07766 23-126): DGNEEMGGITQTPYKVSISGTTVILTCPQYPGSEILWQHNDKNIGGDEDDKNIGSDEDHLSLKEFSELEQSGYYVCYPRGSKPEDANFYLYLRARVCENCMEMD

huCD3e-mFc [3] = target: T2, huCD3e-mFc; test: Pool 3 screen, R2
huCD3e-mFc [4] = target: T2, huCD3e-mFc; test: Pool 3 screen, R3
cynomolgus monkey EGFR = target: T3, cynomolgus monkey EGFR (cynomolgus monkey, UniProt A0A2K5WK39 25-645); test: SPR Biacore 37 C
T3 construct: also called Cyno EGFR

human EGFR [5] = target: T1, human EGFR; test: SPR Biacore 37 C

| Binder | Kd (huCD3e-mFc [2]) [nM] | Kd (huCD3e-mFc [4]) [nM] | also measured |
| --- | --- | --- | --- |
| AC1955 (EGFR.2/CD3.9 paTCE) (bispecific antibody, One polypeptide; also called EGFR-XPAT gen1; pJB0169) VL: DIQMTQSPSSLSASVGDRVTITCQASQDISNYLNWYQQKPGKAPKLLIYDASNLETGVPSRFSGSGSGTDFTFTISSLQPEDIATYFCQHFDHLPLAFGGGTKVEIK VH: QVQLQESGPGLVKPSETLSLTCTVSGGSVSSGDYYWTWIRQSPGKGLEWIGHIYYSGNTNYNPSLKSRLTISIDTSKTQFSLKLSSVTAADTAIYYCVRDRVTGAFDIWGQGTMVTVSS scFv: ELVVTQEPSLTVSPGGTVTLTCRSSTGAVTTSNYANWVQQKPGQAPRGLIGGTNKRAPGTPARFSGSLLGGKAALTLSGVQPEDEAEYYCALWYSNLWVFGGGTKLTVLGATPPETGAETESPGETTGGSAESEPPGEGEVQLLESGGGLVQPGGSLKLSCAASGFTFNTYAMNWVRQAPGKGLEWVARIRSKYNNYATYYADSVKDRFTISRDDSKNTAYLQMNNLKTEDTAVYYCVRHGNFGNSYVSWFAYWGQGTLVTVSS |  |  | Kd (human EGFR [1]): 0.72 nM |
| AC3801 (CD3.297) (scFv, V domains shown, Pool 3 format (remarks)) VH: EVQLVESGGGIVQPGGSLRLSCAASGFTFSTYAMNWVRQAPGKGLEWVGRIRTKRNNYATYYADSVKGRFTISRDDSKNTVYLQMNSLKTEDTAVYYCVRHENFGNSYVSWFAHWGQGTLVTVSS VL: ELVVTQEPSLTVSPGGTVTLTCRSSNGAVTSSNYANWVQQKPGQAPRGLIGGTNKRAPGTPARFSGSLGGGKAALTLSGVQPEDEAVYYCALWYPNLWVFGGGTKLTVL | 3.92 |  | Kd (huCD3e-mFc [3]): 21.2 nM |
| AC3813 (CD3.309) (scFv, V domains shown, Pool 3 format (remarks)) VH: EVQLVESGGGIVQPGGSLRLSCAASGFTFSTYAMNWVRQAPGKGLEWVGRIRTKRNDYATYYADSVKGRFTISRDDSKNTAYLQMNSLKTEDTAVYYCVRHENFGNSYVSWFAHWGQGTLVTVSS VL: ELVVTQEPSLTVSPGGTVTLTCRSSNGAVTSSNYANWVQQKPGQAPRGLIGGTNKRAPGTPARFSGSLLEGKAALTLSGVQPEDEAVYYCALWYPNLWVFGGGTKLTVL | 5.82 | 5.4 |  |
| AC3811 (CD3.307) (scFv, V domains shown, Pool 3 format (remarks)) VH: EVQLVESGGGIVQPGGSLRLSCAASGFTFSTYAMNWVRQAPGKGLEWVGRIRTKRNDYATYYADSVKGRFTISRDDSKNTAYLQMNSLKTEDTAVYYCVRHENFGNSYVSWFAHWGQGTLVTVSS VL: ELVVTQEPSLTVSPGGTVTLTCRSSNGAVTSSNYANWVQQKPGQAPRGLIGGTNKRAPGTPARFSGSLDGGKAALTLSGVQPEDEAVYYCALWYPNLWVFGGGTKLTVL | 6.35 | 4.8 |  |
| AC3805 (CD3.301) (scFv, V domains shown, Pool 3 format (remarks)) VH: EVQLVESGGGIVQPGGSLRLSCAASGFTFSTYAMNWVRQAPGKGLEWVGRIRTKRNDYATYYADSVKGRFTISRDDSKNTAYLQMNSLKTEDTAVYYCVRHENFGNSYVSWFAHWGQGTLVTVSS VL: ELVVTQEPSLTVSPGGTVTLTCRSSNGAVTSSNYANWVQQKPGQAPRGLIGGTNKRAPGTPARFSGSLLGGKAALTLSGVQPEDEAVYYCALWYPNLWVFGGGTKLTVL | 5.53 | 4.4 |  |
| AC3802 (CD3.298) (scFv, V domains shown, Pool 3 format (remarks)) VH: EVQLVESGGGIVQPGGSLRLSCAASGFTFSTYAMNWVRQAPGKGLEWVGRIRTKRNNYATYYADSVKGRFTISRDDSKNTVYLQMNSLKTEDTAVYYCVRHENFGNSYVSWFAHWGQGTLVTVSS VL: ELVVTQEPSLTVSPGGTVTLTCRSSNGAVTSSNYANWVQQKPGQAPRGLIGGTNKRAPGTPARFSGSLDGGKAALTLSGVQPEDEAVYYCALWYPNLWVFGGGTKLTVL | 4.07 |  | Kd (huCD3e-mFc [3]): 8 nM |
| AC3885 (CD3.381) (scFv, V domains shown, Pool 3 format (remarks)) VH: EVQLVESGGGIVQPGGSLRLSCAASGFTFSTYAMNWVRQAPGKGLEWVGRIRTKRNNYATYYADSVKGRFTISRDDSKNTVYLQMNSLKTEDTAVYYCVRHENFGASYVSWFAHWGQGTLVTVSS VL: ELVVTQEPSLTVSPGGTVTLTCRSSNGAVTSSNYANWVQQKPGQAPRGLIGGTNKRAPGTPARFSGSLLGGKAALTLSGVQPEDEAVYYCALWYPNLWVFGGGTKLTVL |  | 4.2 |  |
| AC3881 (CD3.377) (scFv, V domains shown, Pool 3 format (remarks)) VH: EVQLVESGGGIVQPGGSLRLSCAASGFTFSTYAMNWVRQAPGKGLEWVGRIRTKRNNYATTYADSVKGRFTISRDDSKNTVYLQMNSLKTEDTAVYYCVRHENFGNSYVSWFAHWGQGTLVTVSS VL: ELVVTQEPSLTVSPGGTVTLTCRSSNGAVTSSNYANWVQQKPGQAPRGLIGGTNKRAPGTPARFSGSLLGGKAALTLSGVQPEDEAVYYCALWYPNLWVFGGGTKLTVL | 10.7 | 10.4 |  |
| AC3809 (CD3.305) (scFv, V domains shown, Pool 3 format (remarks)) VH: EVQLVESGGGIVQPGGSLRLSCAASGFTFSTYAMNWVRQAPGKGLEWVGRIRTKRNDYATYYADSVKGRFTISRDDSKNTAYLQMNSLKTEDTAVYYCVRHENFGNSYVSWFAHWGQGTLVTVSS VL: ELVVTQEPSLTVSPGGTVTLTCRSSNGAVTSSNYANWVQQKPGQAPRGLIGGTNKRAPGTPARFSGSLEGGKAALTLSGVQPEDEAVYYCALWYPNLWVFGGGTKLTVL | 6.28 | 4.6 |  |
| AC3850 (CD3.346) (scFv, V domains shown, Pool 3 format (remarks)) VH: EVQLVESGGGIVQPGGSLRLSCAASGFTFSTYAMNWVRQAPGKGLEWVGRIRTKTNNYATYYADSVKGRFTISRDDSKNTVYLQMNSLKTEDTAVYYCVRHENFGNSYVSWFAHWGQGTLVTVSS VL: ELVVTQEPSLTVSPGGTVTLTCRSSNGAVTSSNYANWVQQKPGQAPRGLIGGTNKRAPGTPARFSGSLLGGKAALTLSGVQPEDEAVYYCALWYPNLWVFGGGTKLTVL | 9.83 |  | Kd (huCD3e-mFc [3]): 10.8 nM |
| AC3860 (CD3.356) (scFv, V domains shown, Pool 3 format (remarks)) VH: EVQLVESGGGIVQPGGSLRLSCAASGFTFSTYAMNWVRQAPGKGLEWVGRIRTKTNDYATYYADSVKGRFTISRDDSKNTAYLQMNSLKTEDTAVYYCVRHENFGNSYVSWFAHWGQGTLVTVSS VL: ELVVTQEPSLTVSPGGTVTLTCRSSNGAVTSSNYANWVQQKPGQAPRGLIGGTNKRAPGTPARFSGSALGGKAALTLSGVQPEDEAVYYCALWYPNLWVFGGGTKLTVL | 29.4 | 19.7 |  |
| AMX-525 (1x-C) (bispecific antibody) GTSESATPESDIQMTQSPSSLSASVGDRVTITCQASQDISNYLNWYQQKPGKAPKLLIYDASNLETGVPSRFSGSGSGTDFTFTISSLQPEDIATYYCQHFDHLPLAFGQGTKVEIKSESATPESGPGTSPGATPESGPGTSESATPQVQLQESGPGLVKPSETLSLTCTVSGGSVSSGDYYWTWIRQPPGKGLEWIGHIYYSGNTNYNPSLKSRVTISVDTSKNQFSLKLSSVTAADTAVYYCARDRVTGAFDIWGQGTLVTVSSGGGGSELVVTQEPSLTVSPGGTVTLTCRSSNGAVTSSNYANWVQQKPGQAPRGLIGGTNKRAPGTPARFSGSLLEGKAALTLSGVQPEDEAVYYCALWYPNLWVFGGGTKLTVLSESATPESGPGTSPGATPESGPGTSESATPEVQLVESGGGIVQPGGSLRLSCAASGFTFSTYAMNWVRQAPGKGLEWVGRIRTKRNDYATYYADSVKGRFTISRDDSKNTLYLQMNSLKTEDTAVYYCVRHENFGNSYVSWFAHWGQGTLVTVSSGTATPESGPGEAGRSASHTPAGLTGPATPESGPGTSESATPESGPGSPAGSPTSTEEGTSESATPESGPGSEPATSGSETPGTSESATPESGPGTSTEPSEGSAPGTSTEPSEGSAPGTSTEPSEGSAPGTSTEPSEGSAPGTSTEPSEGSAPGTSTEPSEGSAPGSPAGSPTSTEEGTSTEPSEGSAPGTSESATPESGPGSEPATSGSETPGTSESATPESGPGSEPATSGSETPGTSESATPESGPGTSTEPSEGSAPGTSESATPESGPGSPAGSPTSTEEGSPAGSPTSTEEGSPAGSPTSTEEGTSESATPESGPGTSTEPSEGSAPGTSESATPESGPGSEPATSGSETPGTSESATPESGPGSEPATSGSETPGTSESATPESGPGTSTEPSEGSAPGSPAGSPTSTEEGTSESATPESGPGSEPATSGSETPGTSESATPESGPGSPAGSPTSTEEGSPAGSPTSTEEGTSTEPSEGSAPGTSESATPESGPGTSESATPESGPGTSPSATPESGPGSEPATSGSETPGSEPATSGSETPGSPAGSPTSTEEGTSTEPSEGSAPGTSTEPSEGSAPGSEPATSGSETPGTSESAGEPEA |  |  | Kd (cynomolgus monkey EGFR): 0.238 nM; koff (cynomolgus monkey EGFR): 0.00051 s⁻¹; kon (cynomolgus monkey EGFR): 2.12e+06 M⁻¹ s⁻¹; Kd (human EGFR [5]): 0.184 nM; koff (human EGFR [5]): 0.00036 s⁻¹; kon (human EGFR [5]): 2e+06 M⁻¹ s⁻¹ |
